Measurements published in patent US20230416394A1 (ELPISCIENCE SUZHOU BIOPHARMA, published 2023).
Values joined by “and” are separate entries in the source; they are usually repeats but may differ in a detail not shown here. Equal entries are not always repeated.

T1: human CD39 (human, UniProt P49961 1-510)
T1 sequence: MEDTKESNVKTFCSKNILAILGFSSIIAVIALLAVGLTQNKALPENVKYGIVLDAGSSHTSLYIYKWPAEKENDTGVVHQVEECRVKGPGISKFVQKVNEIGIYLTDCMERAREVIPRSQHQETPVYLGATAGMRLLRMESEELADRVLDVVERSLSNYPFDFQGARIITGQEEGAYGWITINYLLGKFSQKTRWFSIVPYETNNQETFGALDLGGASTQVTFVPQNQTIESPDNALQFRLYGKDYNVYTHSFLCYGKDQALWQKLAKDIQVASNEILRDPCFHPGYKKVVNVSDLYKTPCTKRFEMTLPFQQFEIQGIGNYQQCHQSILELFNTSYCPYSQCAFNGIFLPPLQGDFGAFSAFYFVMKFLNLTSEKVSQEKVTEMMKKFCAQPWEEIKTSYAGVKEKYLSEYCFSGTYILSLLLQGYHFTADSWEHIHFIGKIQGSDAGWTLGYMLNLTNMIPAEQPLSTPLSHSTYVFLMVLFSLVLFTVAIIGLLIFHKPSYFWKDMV


Biological target: T1, human CD39
Assay: cell-based or functional assay

Binder | ATPase inhibition on SK-MEL-28 cells, IC50
hu23.201 (antibody, V domains shown) VH: QVQLVQSGAEVKKPGASVKVSCKASGYTLKDTFLHWVRQAPGQRLEWMGRIDPANGNIKYDPKFQGRVTLTADTSSNTAYMELSSLRSEDTAVYYCANSPYYYGSGYRIFDVWGQGTLVTVSS VL: EIVLTQSPATLSLSPGERATLSCSAFSSVNYMHWYQQKPGQSPRLLIYTTSNLASGIPARFSGSGSGTDYTLTISSLEPEDFAVYYCQQRSTYPFTFGQGTKLEIK | 0.264 nM
hu23.H5L6 (antibody, V domains shown) VH: QVQLVQSGAEVKKPGASVKVSCKASGYNLKDTFLHWVRQAPGQGLEWMGRIDPANGNIKYDPKFQGRVTITADTSANTAYMELISLRSEDTAVYYCANSPYYYGSGYRIFDVWGQGTTVTVSS VL: QIVLTQSPATLSASPGERATLSCSAFSSVNYMHWYQQKPGQAPKLLIYTTSNLASGVPTRFSGSGSGTSYTLTISSMEPEDFAVYYCQQRSTYPFTFGQGTKLEIK | 0.13 nM
hu23.H1L2 (antibody, V domains shown) VH: QVQLVQSGAEVKKPGASVKVSCKASGYNLKDTFLHWVRQAPGQRLEWMGRIDPANGNIKYDPKFQGRVTITRDTSASTAYMELSSLRSEDTAVYYCARSPYYYGSGYRIFDVWGQGTTVTVSS VL: EIVLTQSPATLSLSPGERATLSCSAFSSVNYMHWYQQKPGQAPRLLIYTTSNLASGIPARFSGSGSGTDYTLTISSLEPEDFAVYYCQQRSTYPFTFGQGTKLEIK | 0.964 nM
hu23.H7L6 (antibody, V domains shown) VH: EVQLVQSGAEVKKPGASVKLSCKASGYNLKDTFLHWVKQAPGQGLEWIGRIDPANGNIKYDPKFQGKATLTADTSANTAYLELISLRSEDTAVYYCANSPYYYGSGYRIFDVWGQGTTVTVSS VL: QIVLTQSPATLSASPGERATLSCSAFSSVNYMHWYQQKPGQAPKLLIYTTSNLASGVPTRFSGSGSGTSYTLTISSMEPEDFAVYYCQQRSTYPFTFGQGTKLEIK | 0.121 nM
hu23.H2L2 (antibody, V domains shown) VH: QVQLVQSGAEVKKPGASVKVSCKASGYNLKDTFLHWVRQAPGQGLEWMGRIDPANGNIKYDPKFQGRVTITADTSASTAYMELSSLRSEDTAVYYCANSPYYYGSGYRIFDVWGQGTTVTVSS VL: EIVLTQSPATLSLSPGERATLSCSAFSSVNYMHWYQQKPGQAPRLLIYTTSNLASGIPARFSGSGSGTDYTLTISSLEPEDFAVYYCQQRSTYPFTFGQGTKLEIK | 0.767 nM
hu23.H1L4 (antibody, V domains shown) VH: QVQLVQSGAEVKKPGASVKVSCKASGYNLKDTFLHWVRQAPGQRLEWMGRIDPANGNIKYDPKFQGRVTITRDTSASTAYMELSSLRSEDTAVYYCARSPYYYGSGYRIFDVWGQGTTVTVSS VL: EIVLTQSPATLSASPGERVTISCSAFSSVNYMHWYQQKPGQAPRLLIYTTSNLASGIPARFSGSGSGTDYTLTISSMEPEDFAVYYCQQRSTYPFTFGQGTKLEIK | 0.59 nM
hu23.H4L4 (antibody, V domains shown) VH: QVQLVQSGAEVKKPGASVKLSCKASGYNLKDTFLHWVKQAPGQGLEWIGRIDPANGNIKYDPKFQGRATLTADTSASTAYLELSSLRSEDTAVYYCANSPYYYGSGYRIFDVWGQGTTVTVSS VL: EIVLTQSPATLSASPGERVTISCSAFSSVNYMHWYQQKPGQAPRLLIYTTSNLASGIPARFSGSGSGTDYTLTISSMEPEDFAVYYCQQRSTYPFTFGQGTKLEIK | 0.487 nM
hu23.203 (antibody, V domains shown) VH: QVQLVQSGAEVKKPGASVKVSCKASGYTLKDTFLHWVRQAPGQRLEWMGRIDPANGNIKYDPKFQGRVTLTADTSSNTAYMELSSLRSEDTAVYYCANSPYYYGSGYRIFDVWGQGTLVTVSS VL: EIVLTQSPATLTLSPGERATLSCSAFSSVNYMHWYQQKPGQAPRLLIYTTSNLASGIPARFSGSGSGTDYTLTISSLEPEDFAVYYCQQRSTYPFTFGQGTKLEIK | 0.32 nM
hu23.H7L1 (antibody, V domains shown) VH: EVQLVQSGAEVKKPGASVKLSCKASGYNLKDTFLHWVKQAPGQGLEWIGRIDPANGNIKYDPKFQGKATLTADTSANTAYLELISLRSEDTAVYYCANSPYYYGSGYRIFDVWGQGTTVTVSS VL: EIVLTQSPATLSLSPGERATLSCSAFSSVNYMHWYQQKPGQAPRLLIYTTSNLASGIPARFSGSGSGTDFTLTISSLEPEDFAVYYCQQRSTYPFTFGQGTKLEIK | 0.147 nM
hu23.H7L5 (antibody, V domains shown) VH: EVQLVQSGAEVKKPGASVKLSCKASGYNLKDTFLHWVKQAPGQGLEWIGRIDPANGNIKYDPKFQGKATLTADTSANTAYLELISLRSEDTAVYYCANSPYYYGSGYRIFDVWGQGTTVTVSS VL: QIVLTQSPATLSLSPGERATLSCSAFSSVNYMHWYQQKPGQAPRLLIYTTSNLASGIPTRFSGSGSGTSYTLTISSLEPEDFAVYYCQQRSTYPFTFGQGTKLEIK | 0.144 nM
hu23.211 (antibody, V domains shown) VH: EVQLVQSGAEVKKPGASVKVSCKASGYTLKDTFLHWVRQAPGQRLEWMGRIDPANGNIKYDPKFQGRVTITADTSSNTAYMELSSLRSEDTAVYYCANSPYYYGSGYRIFDVWGQGTLVTVSS VL: EIVLTQSPATLSLSPGERATLSCSAFSSVNYMHWYQQKPGQAPRLLIYTTSNLASGIPARFSGSGSGTDYTLTISSLEPEDFAVYYCQQRSTYPFTFGQGTKLEIK | 0.386 nM
c23 (antibody, V domains shown) VH: EVQLQQSGAELLRPGASVKLSCTASGYNLKDTFLHWVKQRPEQGLEWIGRIDPANGNIKYDPKFQGKATLTADTSSNTAYLQLISLTSEDTAVYYCANSPYYYGSGYRIFDVWGAGTTVTVSS VL: QIVLTQSPAIMSASPGEKVTITCSAFSSVNYMHWYQQKPGTSPKLLIYTTSNLASGVPTRFSGSGSGTSYSLTISRMEAEDAATYYCQQRSTYPFTFGSGTKLEIQ | 0.158 nM and 0.209 nM
